Article PMC4931990

Biological target: KDM2B/FBXL10 (UniProt Q8NHM5)
Test: co-IP, western blot
Settings: reference: wild type, EGF-treated; sites S374

binding against the reference: stronger
Substance: c-Fos (from UniProt P01100) S374A, EGF-treated
